Reference: the supplement of paper PMC10567573

B1: INTS4 (parent)
chain: IRLVDDAFGKICHMVSDGSWVVRV

Variants of: B1
Assay: protein stability index of a GFP-peptide fusion (GPS, HEK-293T) (PSI 1-6); higher = more stable
Settings: c terminus: a fixed tail appended
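Note: lentivirally expressed fusions sorted by FACS into six bins by GFP to DsRed ratio, PSI derived from sequencing read proportions per bin multiplied by bin number.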

Question: Which protein stability index does the source give for IRRVDDAFGKICHMVSDGSWVVRV [L3R] here?
Answer: 2.08

Question: With IRVVDDAFGKICHMVSDGSWVVRV [L3V] as the variant, how does the protein stability index read?
Answer: 3.33

Question: For IRWVDDAFGKICHMVSDGSWVVRV [L3W], which protein stability index is on record?
Answer: 1.97

Question: Which protein stability index does the source give for IRIVDDAFGKICHMVSDGSWVVRV [L3I] here?
Answer: 3.47

Question: Which protein stability index does the source give for IRHVDDAFGKICHMVSDGSWVVRV [L3H] here?
Answer: 2.17

Question: With IRFVDDAFGKICHMVSDGSWVVRV [L3F] as the variant, how does the protein stability index read?
Answer: 2.76

Question: For IRCVDDAFGKICHMVSDGSWVVRV [L3C], which protein stability index is on record?
Answer: 1.72

Question: With IRAVDDAFGKICHMVSDGSWVVRV [L3A] as the variant, how does the protein stability index read?
Answer: 3.09

Question: With IREVDDAFGKICHMVSDGSWVVRV [L3E] as the variant, how does the protein stability index read?
Answer: 3.14

Question: For IRLVDDAFGKCCHMVSDGSWVVRV [I11C], which protein stability index is on record?
Answer: 2.87

Question: With IRLVDLAFGKICHMVSDGSWVVRV [D6L] as the variant, how does the protein stability index read?
Answer: 1.98

Question: For IRLVDQAFGKICHMVSDGSWVVRV [D6Q], which protein stability index is on record?
Answer: 4.08

Question: With IRLVDNAFGKICHMVSDGSWVVRV [D6N] as the variant, how does the protein stability index read?
Answer: 4.84

Question: Which protein stability index does the source give for IRLVDWAFGKICHMVSDGSWVVRV [D6W] here?
Answer: 2.88

Question: With IRLVDRAFGKICHMVSDGSWVVRV [D6R] as the variant, how does the protein stability index read?
Answer: 2.21

Question: For IRLVDGAFGKICHMVSDGSWVVRV [D6G], which protein stability index is on record?
Answer: 2.84

Question: For IRLVDMAFGKICHMVSDGSWVVRV [D6M], which protein stability index is on record?
Answer: 3.24

Question: Which protein stability index does the source give for IRLVDTAFGKICHMVSDGSWVVRV [D6T] here?
Answer: 3.69

Question: With IRLVDEAFGKICHMVSDGSWVVRV [D6E] as the variant, how does the protein stability index read?
Answer: 3.96

Question: Which protein stability index does the source give for IRLVDVAFGKICHMVSDGSWVVRV [D6V] here?
Answer: 2.35

Question: With IRLVDDAFMKICHMVSDGSWVVRV [G9M] as the variant, how does the protein stability index read?
Answer: 2.96

Question: For IRLVDDAFEKICHMVSDGSWVVRV [G9E], which protein stability index is on record?
Answer: 1.14

Question: For IRLVDDAFFKICHMVSDGSWVVRV [G9F], which protein stability index is on record?
Answer: 3.37

Question: For IRLVDDAFYKICHMVSDGSWVVRV [G9Y], which protein stability index is on record?
Answer: 3.11

Question: Which protein stability index does the source give for IRLVDDAFVKICHMVSDGSWVVRV [G9V] here?
Answer: 2.6

Question: Which protein stability index does the source give for IRLVDDAFKKICHMVSDGSWVVRV [G9K] here?
Answer: 1.85

Question: With IRLVDDAFRKICHMVSDGSWVVRV [G9R] as the variant, how does the protein stability index read?
Answer: 2.17

Question: For IRLVDDAFPKICHMVSDGSWVVRV [G9P], which protein stability index is on record?
Answer: 3.75

Question: With IRLKDDAFGKICHMVSDGSWVVRV [V4K] as the variant, how does the protein stability index read?
Answer: 3.23

Question: With IRLLDDAFGKICHMVSDGSWVVRV [V4L] as the variant, how does the protein stability index read?
Answer: 4.43

Question: Which protein stability index does the source give for IRLIDDAFGKICHMVSDGSWVVRV [V4I] here?
Answer: 3.33

Question: For IRLNDDAFGKICHMVSDGSWVVRV [V4N], which protein stability index is on record?
Answer: 1.36

Question: Which protein stability index does the source give for IRLCDDAFGKICHMVSDGSWVVRV [V4C] here?
Answer: 2.16

Question: Which protein stability index does the source give for IRLTDDAFGKICHMVSDGSWVVRV [V4T] here?
Answer: 1.88

Question: For IRLMDDAFGKICHMVSDGSWVVRV [V4M], which protein stability index is on record?
Answer: 4.21

Question: For IRLFDDAFGKICHMVSDGSWVVRV [V4F], which protein stability index is on record?
Answer: 2.26

Question: Which protein stability index does the source give for IRLPDDAFGKICHMVSDGSWVVRV [V4P] here?
Answer: 2.57

Question: Which protein stability index does the source give for IRLRDDAFGKICHMVSDGSWVVRV [V4R] here?
Answer: 1.47

Question: With IRLYDDAFGKICHMVSDGSWVVRV [V4Y] as the variant, how does the protein stability index read?
Answer: 2.46

Question: For IRLADDAFGKICHMVSDGSWVVRV [V4A], which protein stability index is on record?
Answer: 3.46

Question: Which protein stability index does the source give for IRLSDDAFGKICHMVSDGSWVVRV [V4S] here?
Answer: 2.82

Question: With TRLVDDAFGKICHMVSDGSWVVRV [I1T] as the variant, how does the protein stability index read?
Answer: 3.21

Question: Which protein stability index does the source give for NRLVDDAFGKICHMVSDGSWVVRV [I1N] here?
Answer: 3.6

Question: Which protein stability index does the source give for YRLVDDAFGKICHMVSDGSWVVRV [I1Y] here?
Answer: 2.87

Question: For QRLVDDAFGKICHMVSDGSWVVRV [I1Q], which protein stability index is on record?
Answer: 3.89

Question: Which protein stability index does the source give for PRLVDDAFGKICHMVSDGSWVVRV [I1P] here?
Answer: 2.78

Question: For IRLVVDAFGKICHMVSDGSWVVRV [D5V], which protein stability index is on record?
Answer: 2.32

Question: Which protein stability index does the source give for IRLVFDAFGKICHMVSDGSWVVRV [D5F] here?
Answer: 4.33

Question: Which protein stability index does the source give for IRLVLDAFGKICHMVSDGSWVVRV [D5L] here?
Answer: 3.22

Question: With IRLVTDAFGKICHMVSDGSWVVRV [D5T] as the variant, how does the protein stability index read?
Answer: 3.23

Question: Which protein stability index does the source give for IRLVRDAFGKICHMVSDGSWVVRV [D5R] here?
Answer: 1.8

Question: With IRLVSDAFGKICHMVSDGSWVVRV [D5S] as the variant, how does the protein stability index read?
Answer: 2.3

Question: With IRLVIDAFGKICHMVSDGSWVVRV [D5I] as the variant, how does the protein stability index read?
Answer: 2.67

Question: For IRLVPDAFGKICHMVSDGSWVVRV [D5P], which protein stability index is on record?
Answer: 2.53

Question: For IRLVCDAFGKICHMVSDGSWVVRV [D5C], which protein stability index is on record?
Answer: 3.07

Question: For IRLVGDAFGKICHMVSDGSWVVRV [D5G], which protein stability index is on record?
Answer: 3.16

Question: For IRLVADAFGKICHMVSDGSWVVRV [D5A], which protein stability index is on record?
Answer: 2.73

Question: For IRLVYDAFGKICHMVSDGSWVVRV [D5Y], which protein stability index is on record?
Answer: 3.78

Question: For IRLVKDAFGKICHMVSDGSWVVRV [D5K], which protein stability index is on record?
Answer: 3.01

Question: For IRLVDDAFGLICHMVSDGSWVVRV [K10L], which protein stability index is on record?
Answer: 2.96

Question: With IRLVDDAFGPICHMVSDGSWVVRV [K10P] as the variant, how does the protein stability index read?
Answer: 2.29

Question: Which protein stability index does the source give for IRLVDDAFGIICHMVSDGSWVVRV [K10I] here?
Answer: 2.57

Question: For IRLVDDAFGGICHMVSDGSWVVRV [K10G], which protein stability index is on record?
Answer: 2.29

Question: Which protein stability index does the source give for IRLVDDAFGNICHMVSDGSWVVRV [K10N] here?
Answer: 1.78

Question: For IRLVDDAFGFICHMVSDGSWVVRV [K10F], which protein stability index is on record?
Answer: 2.4

Question: Which protein stability index does the source give for IRLVDDAFGRICHMVSDGSWVVRV [K10R] here?
Answer: 4.19

Question: With IRLVDDAFGCICHMVSDGSWVVRV [K10C] as the variant, how does the protein stability index read?
Answer: 3.27

Question: With ISLVDDAFGKICHMVSDGSWVVRV [R2S] as the variant, how does the protein stability index read?
Answer: 2.96

Question: For IFLVDDAFGKICHMVSDGSWVVRV [R2F], which protein stability index is on record?
Answer: 4.79

Question: Which protein stability index does the source give for IVLVDDAFGKICHMVSDGSWVVRV [R2V] here?
Answer: 4.66

Question: Which protein stability index does the source give for IMLVDDAFGKICHMVSDGSWVVRV [R2M] here?
Answer: 2.78

Question: For IALVDDAFGKICHMVSDGSWVVRV [R2A], which protein stability index is on record?
Answer: 3.67

Question: For IRLVDDAIGKICHMVSDGSWVVRV [F8I], which protein stability index is on record?
Answer: 2.78

Question: Which protein stability index does the source give for IRLVDDADGKICHMVSDGSWVVRV [F8D] here?
Answer: 4.44

Question: With IRLVDDAMGKICHMVSDGSWVVRV [F8M] as the variant, how does the protein stability index read?
Answer: 2.69

Question: Which protein stability index does the source give for IRLVDDAPGKICHMVSDGSWVVRV [F8P] here?
Answer: 2.54

Question: For IRLVDDAHGKICHMVSDGSWVVRV [F8H], which protein stability index is on record?
Answer: 2.19

Question: Which protein stability index does the source give for IRLVDDARGKICHMVSDGSWVVRV [F8R] here?
Answer: 2.46

Question: With IRLVDDAYGKICHMVSDGSWVVRV [F8Y] as the variant, how does the protein stability index read?
Answer: 2.45

Question: With IRLVDDAQGKICHMVSDGSWVVRV [F8Q] as the variant, how does the protein stability index read?
Answer: 2.5

Question: With IRLVDDAWGKICHMVSDGSWVVRV [F8W] as the variant, how does the protein stability index read?
Answer: 3.06

Question: For IRLVDDASGKICHMVSDGSWVVRV [F8S], which protein stability index is on record?
Answer: 3.94

Question: With IRLVDDAEGKICHMVSDGSWVVRV [F8E] as the variant, how does the protein stability index read?
Answer: 3.82

Question: For IRLVDDAGGKICHMVSDGSWVVRV [F8G], which protein stability index is on record?
Answer: 1.6

Question: Which protein stability index does the source give for IRLVDDAKGKICHMVSDGSWVVRV [F8K] here?
Answer: 2.31

Question: With IRLVDDACGKICHMVSDGSWVVRV [F8C] as the variant, how does the protein stability index read?
Answer: 2.59

Question: For IRLVDDLFGKICHMVSDGSWVVRV [A7L], which protein stability index is on record?
Answer: 3.62

Question: Which protein stability index does the source give for IRLVDDSFGKICHMVSDGSWVVRV [A7S] here?
Answer: 4.46

Question: With IRLVDDFFGKICHMVSDGSWVVRV [A7F] as the variant, how does the protein stability index read?
Answer: 2.22

Question: Which protein stability index does the source give for IRLVDDDFGKICHMVSDGSWVVRV [A7D] here?
Answer: 2.86

Question: For IRLVDDMFGKICHMVSDGSWVVRV [A7M], which protein stability index is on record?
Answer: 2.62

Question: With IRLVDDKFGKICHMVSDGSWVVRV [A7K] as the variant, how does the protein stability index read?
Answer: 2.09

Question: With IRLVDDWFGKICHMVSDGSWVVRV [A7W] as the variant, how does the protein stability index read?
Answer: 3.37

Question: Which protein stability index does the source give for IRLVDDGFGKICHMVSDGSWVVRV [A7G] here?
Answer: 2.95
